Laboratory results taken from the nanobody polyreactivity screen of Harvey et al. (2022).

Experiment: yeast display, Sf9 membrane polyspecificity reagent, FACS + sequencing; frameworks hold sequencing errors
Summary of the method: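 Galactose-induced (36–48 hours) yeast carrying a synthetic nanobody display library were exposed to 10% biotinylated, detergent-solubilized Sf9 membrane reagent at 4 °C for 1 hour. FACS followed streptavidin microbead enrichment, using low and high (top ~1%) gates for expression (anti-HA) and reagent binding (streptavidin). Colony PCR, MiSeq 2 × 250 sequencing and CDR-length filtering followed. Labels for polyreactivity reflect the gate of origin.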
With “QVQLVESGGGLVQAGGSLRLSCAASGSIFGSYAMGWYTQAPGKERELVAAITRAGSTNYADSVKGRFTISRDNAKNTVYLQINSLKPEDTAVFYCAVRPGFGRSLWYGYWGQGTQVTVSS” the “polyreactivity (PSR sort gate)” value was “low polyreactivity”. In the case of “QVQLVESGGGLVQAGGSLRLSCAASGSIFSSYAMGWYRQAPGKEREVVASINSAGSTNYADSVKGRFTISRDNAKNTVYLQMNSLKPDDTAVYYCAASGGTWVNYRPEYDYWGQGTQVTVSS”, the “polyreactivity (PSR sort gate)” value is reported as “low polyreactivity”. For “QVQLVESGGGLVQAGGSLRLSCAASGRIFVPNAMGWYRPPPGKERELVAAINWGGGSTYYADSVKGRFTISRDNAKNTVYLQMNSLKPEDTAVYYCAADHPYTIGVLPNQQFDYWGQGTQVTVSS”, the “polyreactivity (PSR sort gate)” value was “low polyreactivity”. For “QVQLVESGGGLVQAGGSLRLSCAASGSIFNYYAMGWYRQAPGQERELVASISRGGSTNYADSVKGRFTISRDNAKNTVYLQMNSLKPEDTAVYYCNAEGWPGNVVYGYYYWGQGTQVTVSS”, the “polyreactivity (PSR sort gate)” value was “low polyreactivity”. For “QVQLVESGGGLVQAGGSLRLSCAASGRIFSYYDMGWYRQAPGKEREFVAGITWNGGSTYYADSVKGRFTISRDNAKNTVYLQMNSLKPEDTAVYYCAAGVWRTRDWTYYYWGQGTQVTVSS”, the “polyreactivity (PSR sort gate)” value was “high polyreactivity”. In the case of “QVQLVESGGGLVQAGGSLRLSCAASGSTLWWYDMGWYRQAPGKERELVAAINSGGSTNYADSVKGRFTISRDNAKNTVYLQMNSLKPEDTAVYYCNTDGEVTYDYWGQGTQVTVSS”, the “polyreactivity (PSR sort gate)” value is reported as “low polyreactivity”. With “QVQLVESGGGLVQAGGSLRLSCAASGSIFYDNAMGWYRQAPGKERELVAAITIDGSTYADSVKGRFTISRDNAKYTVYLQMNSLKPEDTAVYYCAAEWDTNFWYDYWGQGTQVTVSS” the “polyreactivity (PSR sort gate)” value was “low polyreactivity”. With “QDQLVESGGGLVQAGGSIRLSCAASGGIFESYAMGWYRQAPGKEREMVASISSGGSTYYADSVKGRFTISRDNAKNTVYLQMNSLKPEDTAVYYCNKDYRSVYKGRGFDYWGQGTQVTVSS” the “polyreactivity (PSR sort gate)” value was “low polyreactivity”. In the case of “QVQLVESGGGLVQAGGSLRLSCAASGFTFSENAMGWYRQAPGKERELVADITNGASTNYADSVKGRFTISRDNEKNTVYLLMNSLKPEDTAVYYCATDSYPGLNPDFDYWGLGTQVTVSS”, the “polyreactivity (PSR sort gate)” value is reported as “low polyreactivity”. For “QVQLVESGGGLVQAGGSLRLSCAASGRTFVVYAMGWYRQAPGKERELVAVISFTRDSTFYADSVKGRFTISRDNAKNTVYLQMNSLKPEDTAVYYCAADFRRVFSKYSYYLYFEFDYWGQGTQVTVSS”, the “polyreactivity (PSR sort gate)” value was “low polyreactivity”. With “QVQLVESGGGLVQAGGSLRLSCAASGRTFTNYAMGWYRQAPGKERELVAAAITVGGGRTYYADSVKGRFTISRDNAKNTVYLQMNSLKPEDTAVYYCATDFGTYWYEYWGQGTQVTVSS” the “polyreactivity (PSR sort gate)” value was “high polyreactivity”. For “QVQLVESGGGLVQAGGSLRLSCAASGFIFHRYAMGWYRQAPGKERELVAAITGRGSSTYYADSVKGRFTISRDNAKNTVYLQMNSLKPEDTAVYYCNAYRYQVYDTGWFGYWGQGTQVTVSS”, the “polyreactivity (PSR sort gate)” value was “high polyreactivity”. With “QVQLVESGGGLVQAGGSLRLSCAASGRTLRRYAMGWYRQAPGKERELVAAITSGGTTNYADSVKGRFTISRDNAKNTVYLQMNSLKPEDTAVYYCNARKSSGLSSYDWYSWEYGYWGQGTQVTVSS” the “polyreactivity (PSR sort gate)” value was “low polyreactivity”. For “QVQLVESGGGLVQAGGSLRLSCAASGYTFAGNAMGWYRQAAGKERELVAAISRSGGRTYYADSVKGRFTISRDNAKNTVYLQMNSLNPEDTAVYYCAAYFPRTLFEFGYWGQGTQVTVSS”, the “polyreactivity (PSR sort gate)” value was “high polyreactivity”. In the case of “QVQLVESGGGLVQAGRSLRLSCAASGRIFNYYSMGWYRQAPGKERELVAAISSGGSTYYADSVKGRFTISRDYAKNTVYLQMNSLKPEDTAVYYCAAAYGDYGYWGQGTLVTVSS”, the “polyreactivity (PSR sort gate)” value is reported as “high polyreactivity”. For “QVQLVESGGGLVQAGGSLRLSCAASGNIFWWNAMGWYREATRKERELVAAITSDSTTYYADSVKGRFTISRDNAKNTVYLQMKSLKPEDTAVYYCAAYSYGGQGVDYGYWGQGTQVTVSS”, the “polyreactivity (PSR sort gate)” value was “low polyreactivity”. With “QVQLVESGGGLVQAGGSLRLSCAASGRILDYNAMGWYIQAPGKERELVAAITLNGGGTYYADSVKGRFTISRDNAKNSVYLQMNSLKPEDTAVYYCNADYRRYPEFDYWGQGTHVTVSS” the “polyreactivity (PSR sort gate)” value was “high polyreactivity”.
